Results taken from paper PMC6303327, “A structural and dynamic model for the assembly of Replication Protein A on single-stranded DNA” (Nature Communications, 2018).

Biological target: T1, Rfa3 DNA-binding domain-E (DBD-E), OB domain, residues 1-99 (S. cerevisiae, UniProt P26755 1-99, fluorescent label NT-495 (Monolith NT protein-labeling Kit Blue-Cys) on free cysteine residues)
T1 construct: Rfa3 (RPA14 in humans), S. cerevisiae Replication Protein A smallest subunit, residues 1-99; the C-terminal trimerisation helix is removed; 3C-cleavable GST fusion; also called Rfa3-OB; Rfa3-OB domain; source: E. coli BL21 (DE3), purified (glutathione sepharose 4B, on-column 3C cleavage, SEC)
Test: MST; 50 nM NT-495-labeled DBD-E (or mutant) mixed with equal volumes of a dilution series of DBD-A or DBD-A^S178D; 20 mM Tris pH 7.5, 150 mM NaCl, 0.5 mM TCEP, 0.01% Tween-20, 0.1 mg/ml BSA; 25 °C; apparent EC50 from the Hill equation
Settings: both partners purified

T1 sequence (P26755 1-99): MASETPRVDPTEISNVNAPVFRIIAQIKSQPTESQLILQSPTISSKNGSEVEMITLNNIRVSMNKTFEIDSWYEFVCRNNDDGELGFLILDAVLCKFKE

Row | Binder | EC50
1 | Rfa1 DNA-binding domain-A (DBD-A), residues 178-294 (domain or fragment, S. cerevisiae, UniProt P22336 178-294, looked up, Rfa1 (RPA70 in humans), S. cerevisiae Replication Protein A largest subunit, DBD-A, residues 178-294; amplified from the codon-optimized RPA expression plasmid, cloned into pOPINJ; 3C-cleavable GST fusion; also called Rfa1-DBD-A; source: E. coli BL21 (DE3), purified (glutathione sepharose 4B, on-column 3C cleavage, SEC)) SQKTRPIFAIEQLSPYQNVWTIKARVSYKGEIKTWHNQRGDGKLFNVNFLDTSGEIRATAFNDFATKFNEILQEGKVYYVSKAKLQPAKPQFTNLTHPYELNLDRDTVIEECFDESN | ~100 µM
2 | Rfa1 DBD-A (residues 178-294) phosphomimetic S178D (domain or fragment, S. cerevisiae, UniProt P22336 178-294, looked up, Rfa1, S. cerevisiae, DBD-A, residues 178-294 with S178D (first residue of the fragment); also called DBD-A^S178D; S178D mutant DBD-A; source: E. coli BL21 (DE3), purified (glutathione sepharose 4B, on-column 3C cleavage, SEC)) DQKTRPIFAIEQLSPYQNVWTIKARVSYKGEIKTWHNQRGDGKLFNVNFLDTSGEIRATAFNDFATKFNEILQEGKVYYVSKAKLQPAKPQFTNLTHPYELNLDRDTVIEECFDESN | ~30 µM
